The text below walks through data of US7422862B2, “Methods for identifying modulators of apoptosis” (The Burnham Institute, priority 2001, dated 2008).

No end group written: not given here.

Experiment [1] addresses T1, Bax (Homo sapiens, UniProt Q07812). The experiment can be described thus: Co-immunoprecipitation of GFP-Humanin fusion polypeptides with Bax in transfected cells. Type of experiment: binding. Also on record: expressed in transfected cells; host or cells: HEK293T; key to Bax binding: +: ability to bind Bax was determined by co-immunoprecipitation assay; −: lacked Bax-binding activity. To be noted: for Bax binding: GFP-fusion polypeptides, co-immunoprecipitation. From the text: Humanin (HN) cDNA was sub-cloned into a Green Fluorescence Protein (GFP) expression vector GFP-Cl at the Xhol/Hind III sites, producing a GFP-HN fusion polypeptide. GFP and GFP-HN were transfected into 293T cells with pcDNA3-HA-Bax. Cell lysates from these cells were immunoprecipitated with anti-GFP antibody and subsequently blotted with anti-HA antibody. The lysates were also blotted with ani-GFP antibody to confirm polypeptide expression. […] The data shown were obtained using the cytosolic form of Humanin; however, both cytosolic and mitochondrial forms of Humanin were tested and the results were the same.
Co-immunoprecipitation assays were performed using Humanin polypeptides expressed as fusion polypeptides with the Green Fluorescent Protein (GFP) in human cells. Wild-type Humanin fused to GFP is referred to as GFP-HN and a mutant form of Humanin, where the cysteine at position 8 is replaced with proline, fused to GFP is referred to as GFP-C8P. […] Immunoblot analysis of lysates of the transfected cells confirmed production of all proteins. In addition, GFP-HN also coimmunoprecipitated endogenous Bax from cell lines, which contain relatively high levels of the Bax protein.
Immunoblotting and immunoprecipitations were performed as follows. Immunoblotting was performed as described previously (Fields and Song, Nature 340:245-246 (1989)). For co-immunoprecipitations, cells were cultured in 50 uM […] Valine Alanine Asparate fluoromethyl-ketone (zVAD-fmk) to prevent apoptosis. Cells were suspended in lysis buffer (50 mM Tris-HCl, pH7.4; 150 mM NaCl; 20 mM EDTA; 50 mM NaF; 0.5% NP-40; 0.1 mM Na3VO4; 20 ug/ml Leupeptin; 20 ug/ml Aprotinin; 1 mM DTT; and 1 mM PMSF). Lysates (200 ul diluted in 1 ml final volume of lysis buffer) were cleared by incubation with 15 ul of protein G-Sepharose 4B (Zymed) and then incubated with 15 ul of polyclonal antibody and 15 ul of protein G at 4° C. overnight. Beads were then washed 4 times with 1.5 mls lysis buffer before boiling in Laemmli sample buffer and performing SDS-PAGE/immunoblotting.
(§1) In order to explore whether a correlation exists between Humanin binding to Bax and Humanin-mediated suppression of apoptosis, Bax was co-expressed with various GFP-fusion polypeptides encoding wild-type, full-length Humanin or various truncation and site-specific mutants of Humanin (Table 1). Expression of all GFP-fusion polypeptides was confirmed by immunoblotting, and ability to bind Bax was determined by co-immunoprecipitation assay. Each Humanin mutant was scored for ability to suppress apoptosis induced by Bax over-expression by >50% using a 3:1 ratio of HN:Bax plasmid DNA. […] Based on these studies, an active region of the 24 amino-acid Humanin peptide, mapped to residues 7-17.

The target in experiment [2] is T1, Bax. The experiment can be described thus: Suppression of apoptosis induced by Bax over-expression (Humanin mutants). Type of experiment: cell-based. Further details: expressed in transfected cells; host or cells: HEK293T. To be noted: GFP-fusion polypeptides, 3:1 ratio of HN:Bax plasmid DNA. The protocol:
(§2) Apoptosis assays were performed as follows. Both floating and adherent cells (after trypsinization) were collected 48 hr after transfection, fixed, and stained using 4′,6-diamidine-2′-phenylindole dihydrochloride (DAPI) for assessing apoptosis based on nuclear fragmentation and chromatin condensation (Fields and Song, supra (1989)).
as §1
Cell culture and transfections were performed as follows. CSM14.1, HCT116, Cos-7, and SF268 cells were cultured in DMEM high glucose media (Irvine Scientific, Santa Ana, Calif.) containing 10% fetal bovine serum (FBS). PC-3 cells were cultured with RPMI 1640 media containing 10% FBS. Transfection of cells was performed using SuperFect (Qiagen, Chatsworth, Calif.) or LipofectaminePLUS reagent ([…]).

Experiment [3] concerns the target T1, Bax. Description: Bax-induced apoptosis in transfected neuronal cells (DAPI staining). The format is cell-based. Further details: expressed in transfected cells. Particulars: CSM14.1 cells, 48 h, DAPI. Here is the method: (A) HEK293T cells were transfected with pcDNA3-HA-Bax together with plasmids encoding GFP, GFP-HN(N), or GFP-HN(M). Cell lysates were immunoprecipitated with polyclonal anti-GFP antibody. Immunoprecipitates (IP) or cell lysates were analyzed by immunoblotting using anti-HA or anti-GFP antibodies, respectively. (B) CSM14.1 neuronal cells were co-transfected with pcDNA3-HA-Bax together with plasmids encoding GFP, GFP-HN(N), or GFP-HN(M). Percent apoptosis was determined 48 h later by DAPI staining (mean±SD; n=3).
Rat neuronal cell line CSM14.1 cells were transfected with various plasmids using the Lipofectamine reagent (Invitrogen). For transfection, 10×10^5 cells were plated per well using 6 well plates. Each well received 1 μg DNA plus […] of Lipofectamine. After 24 hours of transfection, the percentage of cell death was determined using 4′-6-diamidino-2-phenylindole (DAPI) staining. […] The data shown were obtained using the cytosolic form of Humanin; however, both cytosolic and mitochondrial forms of Humanin were tested and the results were the same.
as §2
Since Humanin co-immunoprecipitates with Bax but not Bak, the effects of Humanin over-expression on apoptosis induced by these members of the Bcl-2 family was compared. […] Similar results were obtained regardless of whether Humanin was fused to the N- or C-terminus of GFP, with both of these GFP fusion polypeptides localizing to the cytosol of cells.

T1 sequence (Q07812 whole entry, species assumed, the tested form may be a part): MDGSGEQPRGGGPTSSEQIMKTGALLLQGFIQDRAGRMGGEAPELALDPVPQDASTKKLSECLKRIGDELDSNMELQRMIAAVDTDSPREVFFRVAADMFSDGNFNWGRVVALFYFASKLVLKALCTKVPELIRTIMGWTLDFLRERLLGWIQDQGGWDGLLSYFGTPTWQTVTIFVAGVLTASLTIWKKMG

As to “1-12: GFP-fusion of Humanin truncation, residues 1-12 (MAPRGFSCLLLL; also: fused to GFP; UniProt Q8IVG9 1-12, looked up, fragment)”, the Bax binding entry with Bax [1] is on record as “−”. Also, the Bax suppression result with Bax [2] is reported as “− (failed to protect against Bax-induced apoptosis)”.
Take “1-15: GFP-fusion of Humanin truncation, residues 1-15 (MAPRGFSCLLLLTSE; also: fused to GFP; UniProt Q8IVG9 1-15, looked up, fragment)”: the Bax binding result in the experiment with Bax [1] is listed as “−”. Moreover, the Bax suppression entry with Bax [2] is “− (failed to protect against Bax-induced apoptosis)”.
Taken in the same sequence, the figures for “1-17: GFP-fusion of Humanin truncation, residues 1-17 (MAPRGFSCLLLLTSEID; also: fused to GFP; UniProt Q8IVG9 1-17, looked up, fragment)” were “+” and “+ (ability to suppress apoptosis induced by Bax over-expression by >50%)”.
Taken in the same sequence, the figures for “3-17: GFP-fusion of Humanin truncation, residues 3-17 (PRGFSCLLLLTSEID; also: fused to GFP; UniProt Q8IVG9 3-17, looked up, fragment)” were “+” and “+ (ability to suppress apoptosis induced by Bax over-expression by >50%)”.
Taken in the same sequence, the figures for “3-18: GFP-fusion of Humanin truncation, residues 3-18 (PRGFSCLLLLTSEIDL; also: fused to GFP; UniProt Q8IVG9 3-18, looked up, fragment)” were “+” and “+ (ability to suppress apoptosis induced by Bax over-expression by >50%)”.
As to “3-19: GFP-fusion of Humanin truncation, residues 3-19 (PRGFSCLLLLTSEIDLP; also: fused to GFP; UniProt Q8IVG9 3-19, looked up, fragment)”, the Bax binding result with Bax [1] is on record as “+”. Further, the Bax suppression result with Bax [2] was “+ (ability to suppress apoptosis induced by Bax over-expression by >50%)”.
Consider “3-24: GFP-fusion of Humanin truncation, residues 3-24 (PRGFSCLLLLTSEIDLPVKRRA; also: fused to GFP; UniProt Q8IVG9 3-24, looked up, fragment)”, for which the Bax binding entry with Bax [1] is “+”. Also, in the experiment with Bax [2], the Bax suppression result is listed as “+ (ability to suppress apoptosis induced by Bax over-expression by >50%)”.
For the substance “4-24: GFP-fusion of Humanin truncation, residues 4-24 (RGFSCLLLLTSEIDLPVKRRA; also: fused to GFP; UniProt Q8IVG9 4-24, looked up, fragment)”, the Bax binding result with Bax [1] is on record as “+”. Besides, the Bax suppression entry with Bax [2] is listed as “+ (ability to suppress apoptosis induced by Bax over-expression by >50%)”.
The corresponding values for “7-24: GFP-fusion of Humanin truncation, residues 7-24 (SCLLLLTSEIDLPVKRRA; also: fused to GFP; UniProt Q8IVG9 7-24, looked up, fragment)” are “+” and “+ (ability to suppress apoptosis induced by Bax over-expression by >50%)”.
Taken in the same sequence, the figures for “10-24: GFP-fusion of Humanin truncation, residues 10-24 (LLLTSEIDLPVKRRA; also: fused to GFP; UniProt Q8IVG9 10-24, looked up, fragment)” were “−” and “− (failed to protect against Bax-induced apoptosis)”.
The corresponding values for “13-24: GFP-fusion of Humanin truncation, residues 13-24 (TSEIDLPVKRRA; also: fused to GFP; UniProt Q8IVG9 13-24, looked up, fragment)” are “−” and “− (failed to protect against Bax-induced apoptosis)”.
As for “GFP Only: Green Fluorescent Protein control without Humanin [reference compound]”, in the experiment with Bax [1], the Bax binding result is “−”. Besides, the Bax suppression entry with Bax [2] is recorded as “− (failed to protect against Bax-induced apoptosis)”.
Regarding “GFP-HN(M): mitochondria-encoded Humanin (SEQ ID NO:3, 21 amino acids, Met at position 16) as GFP fusion”, the “suppression of Bax-induced apoptosis, nuclear vs mitochondria-encoded form” value with Bax [3] is reported as “suppressed to comparable extents”. Further, the “co-immunoprecipitation with tagged Bax” value with Bax [1] (293T/HEK293T cells, anti-GFP immunoprecipitation) is given as “comparable amounts”.
